Square brackets hold non-standard residues; d marks the D form. Ends that are not written are not given here. NMeW = CN[C@@H](Cc1c[nH]c2ccccc12)C(=O)O; NMeY = CN[C@@H](Cc1ccc(O)cc1)C(=O)O; NMeF = CN[C@@H](Cc1ccccc1)C(=O)O; NMeL = CN[C@@H](CC(C)C)C(=O)O; Orn = NCCC[C@H](N)C(=O)O; Dab = NCC[C@H](N)C(=O)O
Molecular target: human Factor IXa (human, UniProt P00740 47-191; P00740 227-461)
Assay: cell-based or functional assay

Row | Binder | EC50 [µM], FXa generation assay
1 | TCLASYCWLF | < 0.5 µM
2 | KLTELASY[Dab]WLF (not fully specified; printed as KLT-Glu-LASY-Dab-WLF) [KLT-Glu-LASY-Dab-WLF] | > 1 µM
3 | KLTCLASYXWLF (not fully specified; Pen 9) [KLTCLASY-Pen-WLF] | > 20 µM
4 | KLTCLASYC | > 1 µM
5 | KLTCLASYCW[NMeL]F (cysteine pairing not given here) [KLTCLASYCW-MeLeu-F] | > 1 µM
6 | KLTELASY[Orn]WLF (not fully specified; printed as KLT-Glu-LASY-Orn-WLF) [KLT-Glu-LASY-Orn-WLF] | < 0.5 µM
7 | KLTALASYAWLF | > 5.8 µM
8 | CLASYCWLF | > 20 µM
9 | KLTXLASYCWLF (not fully specified; Pen 4) [KLT-Pen-LASYCWLF] | > 20 µM
10 | KLTCLASYCW | > 10 µM
11 | KLTCLASYCWL[NMeF] (cysteine pairing not given here) [KLTCLASYCWL-MePhe] | > 1 µM
12 | KLTCLASYC[NMeW]LF (cysteine pairing not given here) [KLTCLASYC-MeTrp-LF] | > 20 µM
13 | KLTCLAS[NMeY]CWLF (cysteine pairing not given here) [KLTCLAS-MeTyr-CWLF] | > 20 µM
14 | KLTKLASYEWLF [KLT-Lys-LASY-Glu-WLF] | < 0.5 µM
15 | KLT[Orn]LASYEWLF-NH2 (N-terminus assumed; SMILES CC(C)C[C@H](NC(=O)[C@H](CCCN)NC(=O)[C@@H](NC(=O)[C@H](CC(C)C)NC(=O)[C@@H](N)CCCCN)[C@@H](C)O)C(=O)N[C@@H](C)C(=O)N[C@@H](CO)C(=O)N[C@@H](Cc1ccc(O)cc1)C(=O)N[C@@H](CCC(=O)O)C(=O)N[C@@H](Cc1c[nH]c2ccccc12)C(=O)N[C@@H](CC(C)C)C(=O)N[C@@H](Cc1ccccc1)C(N)=O) [KLT-Orn-LASY-Glu-WLF-CONH2] | < 0.5 µM
16 | KLTSLASYSWLF | > 15 µM
17 | KLT[Orn]LASYEWLF-OH (N-terminus assumed; SMILES CC(C)C[C@H](NC(=O)[C@H](CCCN)NC(=O)[C@@H](NC(=O)[C@H](CC(C)C)NC(=O)[C@@H](N)CCCCN)[C@@H](C)O)C(=O)N[C@@H](C)C(=O)N[C@@H](CO)C(=O)N[C@@H](Cc1ccc(O)cc1)C(=O)N[C@@H](CCC(=O)O)C(=O)N[C@@H](Cc1c[nH]c2ccccc12)C(=O)N[C@@H](CC(C)C)C(=O)N[C@@H](Cc1ccccc1)C(=O)O) [KLT-Orn-LASY-Glu-WLF-COOH] | < 0.5 µM

Reference: patent US20140303084A1 (Biogen, published 2014)
